Results: patent publication US20180079802A1 (VANDERBILT UNIVERSITY, published 2018)
Residue numbers refer to the chain shown, from its start.

B1: 2C2 (antibody, V domains shown)
VH: QVQLVQSGGGLVQPGRSLTLSCAASGFTFDVYAMHWVRQAPGKGLEWVAGISWNSGSVGYADSMKGRFTISRDNAKNSLYLQINSLRAEDTALYYCAKAFWFGELSGYGMDVWGQGTLVTVSS
VL: QAVVTQPPSASGFPGQSVTISCTGTSSDVGSYNYVSWYQQHPGKAPKLIIYAVTRRPSGVPERFSGSKSGNTASLTVSGLQAEDEADYYCTSYAGNNKDVFGTGTKVTVL
B2: 2B4 (antibody, V domains shown)
VH: QVQLVQSGSELKKPGASVKVSCKASGYSFTSYSINWVRQAPGQGPEWMGWIDTNTGNPTYAQDFAGRFVFSLDTSVTTAYLQISSLKAGDTAVYYCATYYVDLWGSYRQDYYGMDVWGH
VL: QSVLTQPPSASGTPGQRVTISCSGGSSNIGSNPVNWYQMVPGTAPKLLLYTNNQRPSGVPDRFSGSKSGTSASLAINGLQSEDEADYYCAVWDDSLSGRWVFGGGTKVTVL
B3: 4J21 (antibody, V domains shown)
VH: QVQLVQSGSELKKPGASVKVSCKASGYSFTSYSINWVRQAPGQGPEWMGWIDTNTGNPTYAQDFAGRFVFSLDTSVTTAYLQISSLKAGDTAVYYCATYYVDLWGSYRQDYYGMDVWGHGTLVTVSS
VL: B2 VL with L4V, A10V, R17G, V108L
B4: 5O14 (antibody, V domains shown)
VH: QVQLVQSGGRVVQAGRSLRLSCAASGFTFSMYGVHWVRQAPGKGLEWVAVIWNDGSKEYYGDSVKGRFTISRDNSRNTLYLQMNSLRVDDTAVYFCARDGIPDPERGDYGGLDYWGQGTLVTVSS
VL: QTVVTQFPSSPFASVGDGVTITCRARQSISSYVNWYQQKPGKAPKLLIYATSSLQSGVPSRFSGSGYGTDFTLTISGLQPEDFATYYCQQSYSFPRTFGQGTKVEIK
B5: 3E23 (antibody, V domains shown)
VH: QVQLVQSGPGLVKPSDTLSLTCSVSSDALRSRSYYWGWVRQPPGKGLEWIGTVSYSGGTYYNPSLQSRVTVSVDTSKNHFSLRLNSVTAADAAVYYCARSYFYDGSGYYYLSYFDSWGQGTLVTVSS
VL: QAVVTQEPSLTVSPGGTVTLTCASSTGAVTSGHYPNWFQQKPGQPPRALIYSTDNKHSWTPARFSGSLLGVKAALTLSDVQPEDEADYYCLLHFGGVVVFGGGTKLTVL
B6: 1L1 (antibody, V domains shown)
VH: QVQLVQSGPTLVKPTQTLTLTCTFSGFSLSISGVGVGWIRQPPGKALEWLALIYWDDDKRYSPSLKSRLTITKDTSENQVVLTMTNMDPVDTATYYCAHSMTKGGAIYGQAYFEYWGQGTLV
VL: PSPALEPDSDVGGYNYVSWYQQHPGKAPKLIIYDVTDRPSGVSNRFSASKSANTASLTISGLQAEDEADYYCSSYTSSST
B7: 2D12 (antibody, V domains shown)
VH: QVQLVQSGAEVKKPGASVKVSCKASGYSFNIYGISWVRQAPGQGLEWMGWISAYNGNTNYAQKLQGRVTMTTDTSTSTAYMELRSLRSDDTAVYYCARPLWGEFYYDIWGQGTLVTVSS
VL: QAVVTQSPGTLSLSPGERATLSCRASQSVSSGYSAWYQQKPGQAPRLLIYGASKRAAGIPDRFSGSGSGTDFTLTISRLEPEDFAVYYCQLFATSPPPFGQGTRLEIK
B8: 4N12 (antibody, V domains shown)
VH: QVQLVQSGAEVKKPGASVKVSCKVSGYILSKLSVHWVRQAPGKGLEWMGGSEREDGETVYAQKFQGRISLTEDTSIETAYMELSSLSSEDTAVYYCATGGFWSMIGGNGVDYWGQGTLVTVSS
VL: QAVVTQSPSSLPASVGDRVTITCRASQDIRNNLGWYQQKPGKAPERLIYGTSNLQSGVPSRFSGSGSGTEFTLTISSLQPEDFATYYCLQHNSYPPTFGRGTKVEIK
B9: 8G18 (antibody, V domains shown)
VH: QVQLVQSGAQVKKPGSSVKVSCKPSGGTFNNNGISWVRQAPGQGLEWMGGIVPNFGTPTYGQDFQGRVTITADESTSTVFLELTRLRSDDTAVYFCARGRTAVTPMQLGLQFYFDFWGRGTLVTVSS
VL: QTVVTQEPSLTVSPGGTVTLTCSANSGAVTSDYYPNWFQQKPGQAPRALIYSASNKFSWTPARFSGSLLGGKAALTLSGAQPEDEAEYYCLVYSGDGVVFGGGTKLTV
B10: 4J14 (antibody, V domains shown)
VH: QVQLVQSGAEVKKPGSSVKVSCKASGGTSSTYAISWVRQAPGQGLEWMGGSIPVFATVNYAQKFQGRLTITADESTSTVYMELSSLRSEDTAVYFCASPYCSSMNCYTTFYYFDFWGQGTLVTVSS
VL: QAVVTQPASVFGFPGQSITISCTGTSSDFGTYNYVSWYQQHPGQAPKLMIFDVSNRPSGVSNRFSGSKSGNTASLTISGLQAEDEASYYCSSYTSGSTLYGGGTKLTVL
B11: 3A2 (antibody, V domains shown)
VH: QVQLVQSGGGVVQPGRSLRLSCAASGFTFSNYVMEWVRQAPGKGLEWVAVISYDGSNKYYADSVKGRFTISRDNSKNTLYLQMNSLRAEDTAVYYCARSEWESSYGSGNYYTDYFYYYAMDVWGPGTLVTVSS
VL: QAVVTQSPLSLPVTPGEPASISCRSNQSLLRGIRYNYLDWYLQKPGQSPQLLIYLGSNRASGVPDRFSGSGSATDFTLKISRVEAEDVGVYYCMQALQTPTTFGQGTRLEIK
B12: 3B4 (antibody, V domains shown)
VH: QVQLEESGPTLVKPTQTLTLTCSFSGFSLTTTGVTVGWIRQPPGKALEWLALIYWDDDKRYSPSLKSRLTITKDTSKNQVVLTMTNMDPVDTATYYCAHSTGYYDSSGYRGALDAFAVWGQGTLVTVSS
VL: QIVVTQFPDSPAVSLGERATINCKSSQSVLYHSNNKNYLAWYQQKPGQPPNLLIYWASARQSGVPDRFSGSGSGTDFTLTISSLQAEDVAVYYCQQYYSTPYTFGQGTKLEIK

What follows are binders tested against CHIKV strain NI 64 IbH 35 (West African genotype) (Chikungunya virus strain NI 64 IbH 35) (assay: cell-based or functional assay).

How did the “Neutralization (FRNT), EC50” value turn out when B1 was run?
The value was > 10000 ng/mL.

B2 was tested. Which “Neutralization (FRNT), EC50” value did it give?
Its value is 3.2 ng/mL.

How did the “Neutralization (FRNT), EC50” value turn out when B3 was run?
Its value is 5.2 ng/mL.

With B4 as the binder, how does the “Neutralization (FRNT), EC50” value read?
Its value is 6.7 ng/mL.

The binders below were run against CHIKV strain 99659 (Asian genotype, 2014 Caribbean) (Chikungunya virus strain 99659) (assay: cell-based or functional assay).

B2 was tested. Which “Neutralization (FRNT), EC50” value did it give?
The value was 7 ng/mL.

B3 was tested. Which “Neutralization (FRNT), EC50” value did it give?
Its value is 7.2 ng/mL.

B4 was tested. Which “Neutralization (FRNT), EC50” value did it give?
Its value is 6.2 ng/mL.

Each binder was assayed against CHIKV strain RSU1 (Asian genotype) (Chikungunya virus strain RSU1) (assay: cell-based or functional assay).

B1 was tested. Which “Neutralization (FRNT), EC50” value did it give?
The value was > 10000 ng/mL.

How did the “Neutralization (FRNT), EC50” value turn out when B2 was run?
Its value is 6.5 ng/mL.

With B3 as the binder, how does the “Neutralization (FRNT), EC50” value read?
The value was 7.7 ng/mL.

B4 was tested. Which “Neutralization (FRNT), EC50” value did it give?
The value was 17.3 ng/mL.

These binders were tested against CHIKV strain LR2006 OPY1 (LR) (ECSA genotype) (Chikungunya virus strain LR2006 OPY1) (assay: cell-based or functional assay).

How did the “Neutralization (FRNT), EC50” value turn out when B1 was run?
The value was > 10000 ng/mL.

How did the “Neutralization (FRNT), EC50” value turn out when B2 was run?
The value was 5.6 ng/mL.

How did the “Neutralization (FRNT), EC50” value turn out when B3 was run?
Its value is 7.4 ng/mL.

For B4, which “Neutralization (FRNT), EC50” value is on record?
The value was 12.1 ng/mL.

Each binder was assayed against CHIKV p62-E1 (Chikungunya virus) (assay: SPR (Biacore T100), IgG captured by anti-human IgG, p62-E1 injected).

For B1, which Kd is on record?
Its Kd is 4.59 nM.

What about the koff of the same binder?
The koff was 0.000608 s⁻¹.

What about the kon of the same binder?
The kon was 154000 M⁻¹ s⁻¹.

And the “t1/2” value?
The value was 19 min.

With B3 as the binder, how does the Kd read?
Its Kd is 0.54 nM.

What about the koff of the same binder?
Its koff is 6.2e-05 s⁻¹.

And the kon?
Its kon is 119000 M⁻¹ s⁻¹.

And the “t1/2” value?
The value was 186 min.

Which results are given for B4?
Kd: 1.15 nM; koff: 0.000911 s⁻¹; kon: 790000 M⁻¹ s⁻¹; t1/2: 13 min

Which koff does the source give for B5 here?
Its koff is 0.000267 s⁻¹.

And the “t1/2” value?
Its value is 43 min.

Which Kd does the source give for B6 here?
The Kd was 3.79 nM.

And the koff?
The koff was 0.000273 s⁻¹.

What about the kon of the same binder?
Its kon is 88000 M⁻¹ s⁻¹.

And the “t1/2” value?
The value was 42 min.

How did the Kd turn out when B7 was run?
Its Kd is 0.49 nM.

And the koff?
The koff was ~0.00086 s⁻¹.

And the kon?
Its kon is 1.75e+06 M⁻¹ s⁻¹.

What about the “t1/2” value of the same binder?
Its value is 13 min.

With B8 as the binder, how does the Kd read?
The Kd was 0.95 nM.

And the koff?
Its koff is 0.000118 s⁻¹.

And the kon?
Its kon is 124000 M⁻¹ s⁻¹.

What about the “t1/2” value of the same binder?
Its value is 98 min.

What does the source list for B9?
Kd: 0.48 nM; koff: 0.000188 s⁻¹; kon: 390000 M⁻¹ s⁻¹; t1/2: 62 min

With B10 as the binder, how does the Kd read?
The Kd was 9.94 nM.

What about the koff of the same binder?
Its koff is 0.00153 s⁻¹.

And the kon?
The kon was 161000 M⁻¹ s⁻¹.

What about the “t1/2” value of the same binder?
Its value is 8 min.

What does the source list for B11?
Kd: 4.78 nM; koff: 0.00101 s⁻¹; kon: 212000 M⁻¹ s⁻¹; t1/2: 11 min

For B12, which Kd is on record?
Its Kd is 0.54 nM.

What about the koff of the same binder?
Its koff is 0.000156 s⁻¹.

What about the kon of the same binder?
The kon was 291000 M⁻¹ s⁻¹.

What about the “t1/2” value of the same binder?
Its value is 74 min.
